Reference: US20050287518A1 (Scripps Research, published 2005)

Assays:
[1] = biological target: T1, Recombinant 6His-tagged cdc42 bound to GTPγS (UniProt P60953 1-191, limits assumed); experiment: fluorescence of the solvatochromic dye on CBD, comparison of three cysteine mutants (FIG. 15)
T1 construct: Pre-equilibrated with GTPγS; also called cdc42-GTPγS; not shown: 6His tag
Description: (§1) Analyses of the solvatochromic activation indicator—A solution of mero-CBD (300 nM) in assay buffer was mixed 1:1 (v/v) with solutions of cdc42 (concentration as indicated), pre-equilibrated with 10 mM GDP or GTPγS as described in Knaus, U. G., Heyworth, P. G., Kinsella, B. T., Cumutte, J. T., and Bokoch, G. M. (1992) J. Biol. Chem. 267, 23575-23582. Emission wavelength of 630 nm and excitation wavelength of 600 nm were used to acquire excitation and emission spectra, respectively. For nucleotide dependence, cdc42 (500 nM) was pre-incubated with varying concentrations of GTPγS (1 to 500 nM). Rac1 and RhoA GTPases were pre-equilibrated with GTP […]S in the same manner.

[2] = biological target: T1, Recombinant 6His-tagged cdc42 bound to …; experiment: fluorescence of mero-CBD with saturating amounts of cdc42-GTPγS
Description: as §1
(§2) Fluorescence increase as a measure of CBD-cdc42 interaction—The functionality and specificity of mero-CBD was characterized by measuring fluorescence in the presence of saturating amounts of cdc42-GDP or cdc42-GTPγS. […] Negligible increase (<5%) was also observed in the presence of activated Rac1. No effect on the mero-CBD fluorescence was observed when RhoA-GTPγS was present. Furthermore, even in the presence of excess of activated Rac1 and RhoA, GDP- and GTPγS-bound forms of cdc42 were easily distinguished by CBD-A4C fluorescence (data not shown).

[3] = biological target: T2, Recombinant 6His-tagged RhoA pre-equilibrated with GTPγS (UniProt P61586 1-193, limits assumed); experiment: fluorescence of the solvatochromic dye on mero-CBD, in vitro
T2 construct: also called RhoA-GTPγS; not shown: 6His tag
Description: as §1, §2

T1 sequence (P60953 whole entry): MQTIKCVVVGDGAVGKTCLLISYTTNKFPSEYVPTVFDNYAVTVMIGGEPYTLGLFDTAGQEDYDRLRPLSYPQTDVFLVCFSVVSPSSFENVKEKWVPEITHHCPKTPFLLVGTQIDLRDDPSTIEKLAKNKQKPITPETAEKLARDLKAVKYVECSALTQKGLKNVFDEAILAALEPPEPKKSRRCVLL
T2 sequence (P61586 whole entry): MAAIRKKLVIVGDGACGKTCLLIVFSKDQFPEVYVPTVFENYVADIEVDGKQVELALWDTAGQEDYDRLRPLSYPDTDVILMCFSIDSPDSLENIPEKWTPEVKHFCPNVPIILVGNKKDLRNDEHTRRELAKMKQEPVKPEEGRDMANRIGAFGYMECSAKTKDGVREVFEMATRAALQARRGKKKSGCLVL

B1: mero-CBD-F271C conjugate (Cdc42-binding fragment of human WASP, amino acids 201 to 321, F271C, C-terminal 6His fusion, labeled with the merocyanine dye of FIG. … (other)
chain: DIQNPDITSSRYRGLPAPGPSPADKKRSGKKKISKADIGAPSGFKHVSHVGWDPQNGFDVNNLDPDLRSLCSRAGISEAQLTDAETSKLIYDFIEDQGGLEAVRQEMRRQEPLPPPPPPSHHHHHH
modifications: chain 1 pos 71 (WASP 271): Cys carrying the thiol-reactive merocyanine dye of FIG. 11, written C
notes: Dye-to-protein ratio 0.8 to 1.2 for single-dye conjugates; also called CBD biosensor; CBD-mero
- fold fluorescence change on binding [1]: ~3.5 fold
- fold increase in excitation and emission maxima [2]: ~3.5 fold
- binding result [3]: no binding
